Results as given in PMC5059718, “Leukocyte trafficking-associated vascular adhesion protein 1 is expressed and functionally active in atherosclerotic plaques” (Scientific Reports, 2016).
Bridge positions count the residues as written; N and C are the ends. Peptide text beside a SMILES is read from it. * marks the point of attachment. DOTA = O=C(O)CN1CCN(CC(=O)O)CCN(CC(=O)*)CCN(CC(=O)O)CC1; AEEA = NCCOCCOCC(=O)O

Tests used:
[1] = Body weight and plasma lipids after 4-week VAP-1 inhibitor treatment; format: in vivo, mouse (LDLR−/−ApoB100/100); conditions: mean ± SD
Protocol: (§1) The second phase examined the role of VAP-1 in atherosclerotic plaques. Twenty-five LDLR^−/−ApoB^100/100 mice were treated with a VAP-1 inhibitor (LJP1586, Z-3-fluoro-2-(4-methoxybenzyl)allylamine hydrochloride; a kind gift from M. Linnik, La Jolla Pharmaceuticals, San Diego, CA, USA), or with saline. At the age of 2 months, mice were shifted to a high-fat diet for 2 months prior to the start of 4-week treatment, during which they were on normal chow. All mice were housed in an animal facility under standard conditions (12 h light/dark cycle) and allowed access to food and water ad libitum.
During the 4 week treatment period, LDLR^−/−ApoB^100/100 mice received thrice-weekly intraperitoneal (i.p.) injections of a small molecular VAP-1 inhibitor, LJP1586 (Z-3-fluoro-2-(4-methoxybenzyl)allylamine hydrochloride; 0.5 mg/mL diluted in PBS; a kind gift from M. Linnik, La Jolla Pharmaceuticals, San Diego, CA, USA) at a dose of 5 mg/kg. Mice injected with the physiological saline alone (200 μL) served as negative controls. After treatment, all mice were sacrificed and the hearts were collected, formalin-fixed, and paraffin-embedded. Tissues were then cut transversely into 5 μm sections at the level of the coronary ostia. The areas of intima and media were outlined in sections stained with Movat’s pentachrome, and the intima-to-media ratio for each mouse was determined with ImageJ as described previously. Adjacent sections were stained with an anti-mouse Mac-3 antibody to detect activated macrophages in the intima as described above. […]
Total cholesterol (CHOD-PAP 1489232 kit; Roche Diagnostics GmbH, Mannheim, Germany), choline-containing phospholipids (990–54009; Wako Chemicals GmbH, Neuss, Germany and/or Diagnostic Systems, Holzheim, Germany), and triglycerides (GPO-PAP 1488872 kit; Roche Diagnostics GmbH) were measured using fully enzymatic methods.

VAP-1 [2] = target: T1, VAP-1 (Mus musculus, UniProt O70423); experiment: 4-week VAP-1 inhibitor treatment: plaque macrophages and intima-to-media ratio; format: in vivo, mouse (LDLR−/−ApoB100/100)
T1 construct: VAP-1 was expressed on endothelial cells lining inflamed atherosclerotic lesions; from tissue; host or cells: living mice (LDLR-/-ApoB100/100, Jackson strain #003000; C57BL/6N controls); aorta, atherosclerotic plaque endothelium, adipocytes
T1 sequence (O70423 1-765): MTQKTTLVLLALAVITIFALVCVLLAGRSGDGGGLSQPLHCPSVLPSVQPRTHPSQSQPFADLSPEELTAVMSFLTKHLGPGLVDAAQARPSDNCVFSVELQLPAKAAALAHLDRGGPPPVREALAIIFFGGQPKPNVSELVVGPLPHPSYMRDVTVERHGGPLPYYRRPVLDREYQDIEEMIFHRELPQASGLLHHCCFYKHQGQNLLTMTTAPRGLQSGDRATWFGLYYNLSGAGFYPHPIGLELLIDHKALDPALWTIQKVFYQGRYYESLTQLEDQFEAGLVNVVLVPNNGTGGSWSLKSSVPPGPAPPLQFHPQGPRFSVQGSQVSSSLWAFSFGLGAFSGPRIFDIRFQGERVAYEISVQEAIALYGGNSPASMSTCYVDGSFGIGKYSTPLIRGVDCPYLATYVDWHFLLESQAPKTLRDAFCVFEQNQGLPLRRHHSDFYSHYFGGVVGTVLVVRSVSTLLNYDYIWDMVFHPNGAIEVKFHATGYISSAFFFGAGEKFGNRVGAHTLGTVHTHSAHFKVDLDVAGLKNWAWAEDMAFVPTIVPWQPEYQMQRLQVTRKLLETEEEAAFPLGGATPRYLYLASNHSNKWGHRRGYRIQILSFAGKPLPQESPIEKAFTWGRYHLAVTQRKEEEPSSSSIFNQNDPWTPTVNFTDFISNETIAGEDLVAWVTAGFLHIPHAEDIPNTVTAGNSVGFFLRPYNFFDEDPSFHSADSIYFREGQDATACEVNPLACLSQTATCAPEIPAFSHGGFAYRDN
Protocol: as §1
During the 4 week treatment period, LDLR^−/−ApoB^100/100 mice received thrice-weekly intraperitoneal (i.p.) injections of a small molecular VAP-1 inhibitor, LJP1586 (Z-3-fluoro-2-(4-methoxybenzyl)allylamine hydrochloride; 0.5 mg/mL diluted in PBS; a kind gift from M. Linnik, La Jolla Pharmaceuticals, San Diego, CA, USA) at a dose of 5 mg/kg. Mice injected with the physiological saline alone (200 μL) served as negative controls. After treatment, all mice were sacrificed and the hearts were collected, formalin-fixed, and paraffin-embedded. Tissues were then cut transversely into 5 μm sections at the level of the coronary ostia. The areas of intima and media were outlined in sections stained with Movat’s pentachrome, and the intima-to-media ratio for each mouse was determined with ImageJ as described previously. Adjacent sections were stained with an anti-mouse Mac-3 antibody to detect activated macrophages in the intima as described above. Sections of aortic ostium were used to determine the area of plaque occupied by macrophages in each mouse because the ostium is easily located due to the presence of valves; it is therefore the most reliable place to compare plaque deposition in individual mice.

[3] = test system: broad panel of receptors and enzymes, including monoamine oxidases A and B; conditions: cited from earlier work
Excerpt: (§2) The adhesive function of VAP-1 can be inhibited by […]. Inhibiting VAP-1 reduces the migration of lymphocytes, granulocytes, and monocytes into inflamed tissues; it also reduces pathological angiogenesis in many animal models by abrogating monocyte/macrophage infiltration.

VAP-1 [4] = conditions: mouse VAP-1; cited from earlier work
Excerpt: as §2

VAP-1 [5] = target: T1, VAP-1; experiment: in vivo; design: species or system mouse (LDLR−/−ApoB100/100; C57BL/6N); conditions: mouse
Protocol: (§3) Mice (LDLR^−/−ApoB^100/100, n = 22; C57BL/6N, n = 20) under isoflurane anesthesia were i.v. injected with [^68Ga]DOTA-Siglec-9 (19 ± 5 MBq). […] The thoracic aorta was excised and rinsed in saline to remove blood. Aorta, blood, heart, and femoral muscle were weighed, and radioactivity was measured in a gamma counter (Triathler 3″, Hidex, Turku, Finland). Hearts were preserved in formalin for further characterization of plaques in the aortic root. The ex vivo biodistribution results were expressed as a percentage of the injected radioactivity dose per gram of tissue (%IA/g). The radioactivity remaining in the tail was compensated for. […] Mice (n = 5) then received an injection of [^68Ga]DOTA-Siglec-9 (22 ± 9 MBq) and were then subjected to subsequent ex vivo biodistribution and autoradiography analyses.

VAP-1 [6] = test system: T2, VAP-1; experiment: in vivo; design: species or system mouse (LDLR−/−ApoB100/100; C57BL/6N); conditions: total radioactivity
T2 construct: VAP-1 was expressed on endothelial cells lining inflamed atherosclerotic lesions; from tissue; host or cells: living mice (LDLR-/-ApoB100/100, Jackson strain #003000; C57BL/6N controls); aorta, atherosclerotic plaque endothelium, adipocytes
Protocol: as §3

VAP-1 [7] = target: T1, VAP-1; design: species or system mouse (LDLR−/−ApoB100/100; C57BL/6N); conditions: in vivo
Protocol: Mice (n = 5) then received an injection of [^68Ga]DOTA-Siglec-9 (22 ± 9 MBq) and were then subjected to subsequent ex vivo biodistribution and autoradiography analyses.
The distribution of [^68Ga]DOTA-Siglec-9 in the aorta was examined in more detail using autoradiography, as described previously. Briefly, after gamma counting, excised aortas were frozen in isopentane, and sequential longitudinal cryosections (20 and 8 μm) were cut using a cryomicrotome at −15 °C. Sections were then thaw-mounted onto microscope slides. […]
The 20 μm sections were stained with hematoxylin and eosin and scanned with a Pannoramic 250 Flash slide scanner (3DHISTECH Ltd.), and morphology was examined using Pannoramic Viewer 1.15 software (3DHISTECH Ltd.). After carefully superimposing the autoradiographs and hematoxylin-eosin staining images, the concentration of ^68Ga-radioactivity was measured in the following ROI: 1) plaques (excluding media); 2) normal vessel wall (no lesion formation); and 3) adventitia (mainly adipose tissue around the aorta). The results were expressed as count densities (photostimulated luminescence per square millimeter; PSL/mm^2) using Tina 2.1 software (Raytest Isotopemessgeräte GmbH, Straubenhardt, Germany). […] In total, […] (417 in plaques, 478 in normal vessel walls, and 347 in adventitia) were analyzed in 27 atherosclerotic and 20 control mice. […]

| reduction of Mac-3-positive macrophages in atherosclerotic plaques compared with the saline group (VAP-1 [2]; LJP1586 5 mg/kg i.p. thrice weekly for 4 weeks, P < 0.0001) [%] | intima-media ratio (plaque size) (VAP-1 [2]; LJP1586 5 mg/kg i.p. thrice weekly for 4 weeks, n = 15, aortic ostium, mean ± SD (saline 1.5 ± 0.6; P = 0.15)) | areal percentage of the aortic plaque occupied by Mac-3-positive macrophages (VAP-1 [2]; LJP1586 5 mg/kg i.p. thrice weekly for 4 weeks, n = 15, aortic ostium, mean ± SD (saline 15% ± 5.1%)) | effect on plaque size, as determined by the intima-media ratio (VAP-1 [2]; LJP1586 for 4 weeks vs saline) | Compound | Body weight ([1]; LJP1586-treated LDLR−/−ApoB100/100 mice (n = 15), P = 0.065 vs saline) [g] | Weight, female ([1]; LJP1586 group, female LDLR−/−ApoB100/100 mice (n = 8)) [g] | Weight, male ([1]; LJP1586 group, male LDLR−/−ApoB100/100 mice (n = 7)) [g] | selectivity for VAP-1 [3] | IC50 (VAP-1 [4]) [nM] | aorta-to-blood ratio on prolonging the accumulation time-point to 90 min (VAP-1 [5]) | aorta-to-muscle ratio (VAP-1 [5]) | aorta-to-muscle ratio with competition (VAP-1 [5]) | tissue uptake at 25 min (VAP-1 [6]; C57BL/6N, mouse, iv, uptake by the whole aorta) [%ID/g] | tissue uptake at 25 min (VAP-1 [6]; LDLR−/−ApoB100/100, mouse, iv, radioactivity concentration in the blood) [%ID/g] | tissue uptake at 25 min (VAP-1 [6]; LDLR−/−ApoB100/100, mouse, iv, uptake by the whole aorta) [%ID/g] | tissue uptake at 25 min (VAP-1 [6]; LDLR−/−ApoB100/100, mouse, radioactivity concentration in the blood with competition) [%ID/g] | tissue uptake at 25 min (VAP-1 [6]; LDLR−/−ApoB100/100, mouse, uptake by the whole aorta with competition) [%ID/g] | Plaque-to-adventitia ratio (autoradiography) (VAP-1 [7]) [P < 0.0001] | Plaque-to-wall ratio (autoradiography) (VAP-1 [7]) [P < 0.0001] |
| --- | --- | --- | --- | --- | --- | --- | --- | --- | --- | --- | --- | --- | --- | --- | --- | --- | --- | --- | --- |
| 46 | 1.9 ± 0.8 | 8.2% ± 3.5% | no effect | COc1ccc(C/C(=C/F)CN)cc1.Cl [LJP1586, Z-3-fluoro-2-(4-methoxybenzyl)allylamine hydrochloride] | 28 ± 4.5 | 25 ± 1.9 | 33 ± 1.7 | has been confirmed | 4 | – | – | – | – | – | – | – | – | – | – |
| – | – | – | – | CC(C)C[C@@H]1NC(=O)CNC(=O)[C@H](CCCNC(=N)N)NC(=O)[C@H](Cc2c[nH]c3ccccc23)NC(=O)[C@H](CO)NC(=O)[C@H](CC(C)C)NC(=O)[C@H](CO)NC(=O)[C@H](CC(C)C)NC(=O)[C@H](CCCNC(=N)N)NC(=O)[C@H](C)NC(=O)[C@@H](NC(=O)COCCOCCNC(=O)CN2CCN(CC(=O)O)CCN(CC(=O)O)CCN(CC(=O)O)CC2)CSSC[C@@H](C(=O)N2CCC[C@H]2C(=O)N[C@@H](CO)C(=O)N[C@@H](CCCCN)C(=O)O)NC(=O)[C@H](CC(C)C)NC(=O)[C@H]([C@@H](C)O)NC1=O [[^68Ga]DOTA-Siglec-9, metal not drawn] ({DOTA-AEEA}-CARLSLSWRGLTLCPSK-OH; disulfide 1-14) | – | – | – | – | – | did not improve | 1.7 ± 0.59 | 1.1 ± 0.38 | 0.46 ± 0.1 | 3 ± 1.3 | 0.83 ± 0.33 | 2.6 ± 0.9 | 0.48 ± 0.066 | 1.8 ± 0.35 | 2.1 ± 0.43 |
